The supplement of paper PMC9170038

Test system: MS2 coat protein
Assay: apparent KD of MS2 coat protein; designed switch direction (-1 OFF switch, 1 ON switch): -1; higher = weaker reporter binding
Summary of the method: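 Stalled E. coli RNA polymerase transcribed designed RNA switches on Illumina chips, which were then titrated with SNAP-549-labelled MS2 coat protein, doubling from 0.7 or 1.5 nM to 3 µM. Steps lasted from 0.8–1.5 h at the lowest concentration to 10–20 min at the highest. The apparent KD is each design's median over clusters of curve-fitted normalised fluorescence.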

[1] = Eterna round: R95, input ligand: microRNA oligo, concentration not stated
[2] = input ligand: microRNA oligo, concentration not stated
[3] = Eterna round: R95, input ligand: FMN 200 uM
[4] = Eterna round: R95, input ligand: none

Sequence	apparent KD of MS2 coat protein (input ligand: FMN 200 uM) [nM]	apparent KD of MS2 coat protein (input ligand: none) [nM]	apparent KD of MS2 coat protein [1] [nM]	apparent KD of MS2 coat protein [2] [nM]	apparent KD of MS2 coat protein [3] [nM]	apparent KD of MS2 coat protein [4] [nM]
GACUUCUCUGAGGAUAUUGCAUCAUACGAUAAAUAAGAAGGCAGAACAUGAGGAUCACCCAUGUGGGUUUUAAG [Bingo-Bango-33] (Eterna round: R97, puzzle: Exclusion 6)	137	104				
GGGUGACAUGAGGAUCACCCAUGUCAGGAUAUGAUACUAUGUACUUCGGUACAUAGUAUCAGAAGGGACAUAAA [Ex1-3: 15] (puzzle: Exclusion 1)			103			
UUAACAUGCUGGUGAUCAUACAUGAGGAUCACCCAUGUAACAAGCUUUUUGUUCGUCUUAUAAGAUCACCAGCAUGU [Stov1/9-B1] (Eterna round: R97, puzzle: Sensor, turn-off variant 1)	18.7	17.2				
GGUCGACAUGAGGAUCACCCAUGUCAGGAUAUCGUCACUGGAGCUUCGGCUCCAGUGACGAGAAGGGAUAUGAU [E1/17-A1] (Eterna round: R97, puzzle: Exclusion 1)	39.1	34.2				
CUCGUGUAAGGAUAUAUGAGUCACGGAAAUAAACCGUGAAGAUAGAAGGUACAUGAGGAUCACCCAUGUAAAAC [Mod of Anonveat 4 - Jieux - Exclusion 4] (Eterna round: R97, puzzle: Exclusion 4)	124	99.4				
UGCAUGGUAGGAUAUACGGAACAUUAGGGUUUGUUAUGUAGACAUGAGGAUCACCCAUGUAGAAGGGCCGUGCU [JL-ex2-2.14 mat747 mod] (puzzle: Exclusion 2)			33.8			
AAGUCGGCAGGAUAUACAUGAGGAUCACCCAUGUAAAUUUUUCGUUUAACUUGAAUGUGUAGAAGGGCCAUGAA [Ex3 #67] (Eterna round: R97, puzzle: Exclusion 3)	25.8	27.2				
ACAAGAAUAGGAUAUACAACAUGCCAGCUUCUUUACAACGCACAUGAGGAUCACCCAUGUAGAAGGGUUCUCUG [Exclusion-2-#14] (Eterna round: R97, puzzle: Exclusion 2)	360	329				
UACAUGAGGAUCACCCAUGUUUUGUCGUGUAUGGUAUUUAUCUAGGAUAUCAAUUUAUUUAAUUAUGAGAAGGAGAAUAUUAAU [JMF's solution 21] (Eterna round: R96, puzzle: Exclusion NG 3)	36.3	34.7		27.7		
UCUUUACAUGAGGAUCACCCAUGUGAGGAUAUGGUUUCGCUGGCCGUAGCCAGUGGAACCAGAAGGCGCGUGAU [Mat - Exclusion 1 - JL Mod - D25] (Eterna round: R97, puzzle: Exclusion 1)	55.1	70.9				
UGUACGAUGCGUGCUGACAUGCGUCGUGCAGCAGGUGAUACAUGAGGAUCACCCAUGUCCUCAUUUGCUCGUCAUGU [Mat - Sensor v3 - Turn-off var 2 - D25] (puzzle: Sensor v3, turn-off variant 2)			384		73.4	91.3
GUGGGUCCUCACGGUGCUACAUGAGGAUCACCCAUGUGGAUUGAGGAUAUCGUAACCCUACGGGACGAGAAGGCAGUUUACUGU [Ex NG3 #100] (Eterna round: R96, puzzle: Exclusion NG 3)	48.5	23.1		14.7		
GUCCUACAUGAGGAUCACCCAUGUAAGGAUAUGCUAGCGGUCGGCUGACUGACUGCUAGCAGAAGGUACAUGAU (puzzle: Exclusion 1)			15.6			
GGAUAGUGAGGAUAUCGAUGUUAGGAGGAGUAGAUAGGAGGCGAGAAGGCACAUGAGGAUCACCCAUGUAUGGA [JR_Exclu4_Sub068] (puzzle: Exclusion 4)			47.8			
CUUUUGUGAGGAUAUCAGUAGUAAAAAAAUAAAAUUACUACUGAGAAGGCACAUGAGGAUCACCCAUGUUCCUC [salish99_ex4_r3_009] (puzzle: Exclusion 4)			39.7		257	38.4
GUAAUUAUAUAGGAUAUCGAAUUUAUUAUUUAACGAGAAGGAUGAACAUGAGGAUCACCCAUGUGGUAUCAUGG [JL-ex6-3.04] (puzzle: Exclusion 6)			139		145	165
GGGCCCGGUGUGAGGAUAUUGGGCCCGAAAGGGCCCGAGAAGGCACAUGAGGAUCACCCAUGUAAGCCGGGCCC [-46.5, -44.5 kcal, A 23%, 5c-0] (Eterna round: R97, puzzle: Brourd's mod of Exclusion 4)	15.8	14.9				
GAAGAGACAGGAUAUACAUGAGGAUCACCCAUGUGAGGAUGUUGGAGGCGGAGGAGGUGUAGAAGGGUCAAAGA [JR_Exclu3_Sub020] (puzzle: Exclusion 3)			26.7			

Sequence	apparent KD of MS2 coat protein (input ligand: FMN 200 uM) [nM]	apparent KD of MS2 coat protein (input ligand: none) [nM]	apparent KD of MS2 coat protein [1] [nM]	apparent KD of MS2 coat protein [2] [nM]	apparent KD of MS2 coat protein [3] [nM]	apparent KD of MS2 coat protein [4] [nM]
GAAAAGGUAGGAUAUACGAAAAGAAAGGGUAGAGAAGAAACACAUGAGGAUCACCCAUGUAGAAGGACCAAAAG [salish99_ex2_r3_098] (puzzle: Exclusion 2)			26.4		96.4	28.4
UUUGUUUUGGUAGGAUAUACUUUUAUUUUCUCUUUCCUUACAUGAGGAUCACCCAUGUUUACAUUGUAGAAGGACCACUUUGUU [JR_ExcNG2_Sub051] (Eterna round: R96, puzzle: Exclusion NG 2)				15.5		
CAGUACUGAGGAUAUACAUGAGGAUCACCCAUGUGUUCCAGCUAGGAAACUAGCAAAAGUAGAAGGCAGUACUG [Ex3: 828] (Eterna round: R96, puzzle: Exclusion 3)	646	25.9		22.1		
UCGACCGGAGGAUAUCACGUAAAGUACAUGAGGAUCACCCAUGUGUGAUGACUCGAGUCGUGAGAAGGCCGAUAUG [Larausbeer] (puzzle: Exclusion 5)			65.8			
ACACUGCUAGGAUAUGCAGCGGCAUCAGCCGAAAGUCCCUCACAUGAGGAUCACCCAUGUAGAAGGAGCAAGAC [Eternabot (Original) Solution 13] (Eterna round: R97, puzzle: Exclusion 2)	26.9	26.6				
AUGAGCAGACGGAGAUCCAACAUGAGGAUCACCCAUGUCUCAUAAGCUUUUUGCUCAUCUUAUUGUACCUUGGUGCU [Mat - Sensor v3 - turn-off var 1 - JL Mod - D19] (puzzle: Sensor v3, turn-off variant 1)			11.5		191	251
UGAGUGCUGCGAGGAUAUACAUGAGGAUCACCCAUGUGGUGGUGUGAGGCUUUGCCUCACACCAUGUAGAAGGCGCAGUACUCU [JL ENG2 1.08] (Eterna round: R96, puzzle: Exclusion NG 2)	237	37.2		33.3		
CCUGUGUGAGGAUAUGGUGUUGGCCAAAAGGAAUAGCUCCUCCAGAAGGCACAUGAGGAUCACCCAUGUCGUGG [Jolly's Folly 23 - Jieux - Exclusion 4] (Eterna round: R96, puzzle: Exclusion 4)	138	60.2		50.3		
UAAAUCGCAGGAUAUCCAGAGGAGGACAUGAGGAUCACCCAUGUGGAAAGGAAAGGAGGAGGAGAAGGGCGAUUUA [Paired] (Eterna round: R97, puzzle: Exclusion 5)	84.4	72.5				
UUAAAUCAUGUAGGAUAUGCUUUGCGAAGCGAGGCAGAAGGACAUGAGGAUCACCCAUGUGCUAGCGUCCGAGAACGGAUGCAA [Mat - Exclusion NG 1 - Mod of JL - D63] (Eterna round: R96, puzzle: Exclusion NG 1)	149	79.6		51.8		
ACAAACACGGCAGGAUAUCCUCGCAUAUGAUAGGUUGUUCUCCACAUGAGGAUCACCCAUGUCGAGGAGAAGGGCCAUCAUUCU [Tibema] (Eterna round: R96, puzzle: Exclusion NG 2)	16.2	18.9		12.7		
UCGUUUUUUGAGGAUAUGCGACGUUCCUUCGUCGUAGAAGGCGAUACAUGAGGAUCACCCAUGUUUAUGGGCAU [LRO-Ex6-16] (puzzle: Exclusion 6)			109			
UUAUUAUAUGUAGGAUAUGCGUAUUAUUGUUAUGCAGAAGGACAUGAGGAUCACCCAUGUAUAUUAUUGUUAUAUAUUAUAUGU [Title] (Eterna round: R96, puzzle: Exclusion NG 1)	110	30.3		26.6		
UUUUUGUGAGGAUAUCAGUAGUAAAUAAAUAAAAUAACUACUGAGAAGGCACAUGAGGAUCACCCAUGUUCUUU [Mat - Exclusion 4 - Mod of Salish - D67] (puzzle: Exclusion 4)			17.1			
AGUACUAUCACGAAAGUGAUAGUACAAUGAGCUUUUGAAACAUGAGGAUCACCCAUGUCCUCAUAAGCUCGUCUUAU [JL turnoff v2 52] (Eterna round: R96, puzzle: Sensor v2, turn-off variant 2)	17.4	18.9		123		
CGGGUCGGAGGAUAUACAGAAGCAUCUGUGUCGGGAAUAUGACAUGAGGAUCACCCAUGUAGAAGGCCGAUCAC [Eternabot (L2) Solution 98] (Eterna round: R97, puzzle: Exclusion 2)	485	80				
GACCUACAUGAGGAUCACCCAUGUCAGGAUAUGUGGCGGAGUACGAACAGUCCAAGCGACAGAAGGGACAACAG [Eternabot (Original) Solution 24] (Eterna round: R97, puzzle: Exclusion 1)	27.8	25.3				
